Substrate in this data set: [O-][Cl+]O
Put plainly: Clark-type O2 electrode, initial rates. The format is biochemical, Dechloromonas aromatica (nom. nud.). The note with it: pH 5.2, 4 °C, 100 mM citrate-phosphate.

In general, Km refers to the concentration of substrate that gives half-maximal velocity. As a reminder, the kcat is the maximal rate divided by the concentration of active sites. The term kcat/Km denotes the second-order rate constant that governs catalysis at low substrate concentration.

B1: Chlorite dismutase (Cld) (Dechloromonas aromatica RCB) (protein)
chain: MQPMQSMKIERGTILTQPGVFGVFTMFKLRPDWNKVPVAERKGAAEEVKKLIEKHKDNVLVDLYLTRGLETNSDFFFRINAYDLAKAQTFMREFRSTTVGKNADVFETLVGVTKPLNYISKDKSPGLNAGLSSATYSGPAPRYVIVIPVKKNAEWWNMSPEERLKEMEVHTTPTLAYLVNVKRKLYHSTGLDDTDFITYFETDDLTAFNNLMLSLAQVKENKFHVRWGSPTTLGTIHSPEDVIKALAD
For the protein B1, the Km turned out to be 620 ± 70 µM, the kcat stood at 20000 ± 6000 s⁻¹ and the kcat/Km came to 3.2e+07 ± 4e+06 M⁻¹ s⁻¹.

These data come from PMC3050645.
